Test [1] addresses dog K12del HA-tagged retinol-binding protein (^HARBP) (dog). The experiment in a line: non-reducing SDS-PAGE and western blot; conditioned media of transfected HeLa cells; no beta-mercaptoethanol; anti-HA, LI-COR. For orientation: A western blot detects proteins with antibodies after separation by electrophoresis.
Test [2] concerns the target dog K12del retinol-binding protein (RBP) in serum (dog (endogenous in serum)). The experiment in a line: non-reducing SDS-PAGE and western blot; dog serum; non-reducing conditions; gels treated with beta-mercaptoethanol before transfer.

In general, stoichiometry N refers to a count of units in the complex or per binding partner.

For the substance “dog K12del HA-tagged retinol-binding protein (^HARBP) (natural protein)”, the dimer fraction in test [1] amounted to 0.89. As to “dog K12del retinol-binding protein (RBP) in serum (natural protein)”, in test [2], the stoichiometry N came to 2.

Source of the values: paper PMC6546432.
